T1: human APRIL protein (ACRO Biosystems, Cat. No.: APL-H52D1) (human, UniProt O75888 115-250, limits assumed)
T1 sequence (looked up): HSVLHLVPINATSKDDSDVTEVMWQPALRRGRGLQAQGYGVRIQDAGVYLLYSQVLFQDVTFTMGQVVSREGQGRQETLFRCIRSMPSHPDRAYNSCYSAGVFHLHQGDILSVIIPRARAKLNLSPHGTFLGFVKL

T2: human BDCA2 protein (Kactus Biosystems, Cat# BCA-HM402) (human, UniProt Q8WTT0 45-213)
T2 construct: also called Human BDCA2-His
T2 sequence: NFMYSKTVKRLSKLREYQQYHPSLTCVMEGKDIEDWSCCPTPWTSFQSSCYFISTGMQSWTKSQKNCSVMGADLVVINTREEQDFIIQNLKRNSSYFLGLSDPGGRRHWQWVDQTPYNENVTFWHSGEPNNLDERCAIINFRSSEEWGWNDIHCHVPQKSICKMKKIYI


Key:
[1] = biological target: T1, human APRIL protein (ACRO Biosystems, …); experiment: BLI Octet RED96e, protein captured on AHC sensor, APRIL 100 nM in solution
[2] = biological target: T3, human BAFF protein (ACRO Biosystems, Cat. No.: BAF-H52D4) (human, UniProt Q9Y275 134-285); experiment: BLI Octet RED96e, protein captured on AHC sensor, BAFF 100 nM in solution
[3] = biological target: T2, human BDCA2 protein (Kactus Biosystems, …); experiment: BLI Octet RED96e, protein captured on AHC sensor, BDCA2 100 nM in solution
[4] = biological target: T1, human APRIL protein (ACRO Biosystems, …); experiment: BLI Octet RED96e, protein captured on AHC sensor, APRIL 1.56-100 nM in solution
[5] = biological target: T2, human BDCA2 protein (Kactus Biosystems, …); experiment: BLI Octet RED96e, fusion protein captured on AHC sensor, BDCA2 1.56-100 nM in solution
[6] = biological target: T3, human BAFF protein (ACRO Biosystems, …); experiment: BLI Octet RED96e, protein captured on AHC sensor, BAFF 1.56-100 nM in solution
[7] = biological target: T2, human BDCA2 protein (Kactus Biosystems, …); experiment: BLI Octet RED96e, antibody captured on AHC sensor, BDCA2 100 nM in solution

T3 sequence (Q9Y275 134-285 limits assumed): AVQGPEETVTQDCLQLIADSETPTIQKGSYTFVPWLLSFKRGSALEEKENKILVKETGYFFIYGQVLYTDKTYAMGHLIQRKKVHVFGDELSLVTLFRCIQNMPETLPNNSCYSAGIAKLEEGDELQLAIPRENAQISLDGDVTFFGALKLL

Row | Binder | Kd [1] | Response (nm) [1] | koff [1] | kon [1] | Kd [2] | Response (nm) [2] | koff [2] | kon [2] | Kd [3] | Response (nm) [3] | koff [3] | kon [3] | other results
1 | bispecific fusion protein BI-9D2-3GS4 (bispecific antibody, human IgG1, kappa) heavy: not shown light: ETVLTQSPATLSLSPGERATLSCRASSSVSYMYWFQQKPGQAPRLLIYSTSNLASGIPARFSGSGSGTDYTLTISSLEPEDFAVYYCQQRRNYPHTFGGGTKVEIKRTVAAPSVFIFPPSDEQLKSGTASVVCLLNNFYPREAKVQWKVDNALQSGNSQESVTEQDSKDSTYSLSSTLTLSKADYEKHKVYACEVTHQGLSSPVTKSFNRGEC | 0.616 nM | 0.251 nm | 0.000582 s⁻¹ | 944000 M⁻¹ s⁻¹ | < 0.001 nM | 0.34 nm | < 1e-07 s⁻¹ | 422000 M⁻¹ s⁻¹ | 0.234 nM | 0.551 nm | 3.58e-05 s⁻¹ | 153000 M⁻¹ s⁻¹ | 
2 | bispecific fusion protein BI-9ND2-3GS4 (bispecific antibody, human IgG1, kappa) heavy: not shown light: ETVLTQSPATLSLSPGERATLSCRASSSVSYMYWFQQKPGQAPRLLIYSTSNLASGIPARFSGSGSGTDYTLTISSLEPEDFAVYYCQQRRNYPHTFGGGTKVEIKRTVAAPSVFIFPPSDEQLKSGTASVVCLLNNFYPREAKVQWKVDNALQSGNSQESVTEQDSKDSTYSLSSTLTLSKADYEKHKVYACEVTHQGLSSPVTKSFNRGEC | 0.0944 nM | 0.327 nm | 9.99e-05 s⁻¹ | 1.06e+06 M⁻¹ s⁻¹ | < 0.001 nM | 0.487 nm | < 1e-07 s⁻¹ | 489000 M⁻¹ s⁻¹ | < 0.001 nM | 0.473 nm | < 1e-07 s⁻¹ | 117000 M⁻¹ s⁻¹ | 
3 | bispecific fusion protein BI-9NTACI-A (bispecific antibody, human IgG1, kappa, also called heavy chain 37F2C6-HuVH3-3N-TACI) heavy: not shown light: ETVLTQSPATLSLSPGERATLSCRASSSVSYMYWFQQKPGQAPRLLIYSTSNLASGIPARFSGSGSGTDYTLTISSLEPEDFAVYYCQQRRNYPHTFGGGTKVEIKRTVAAPSVFIFPPSDEQLKSGTASVVCLLNNFYPREAKVQWKVDNALQSGNSQESVTEQDSKDSTYSLSSTLTLSKADYEKHKVYACEVTHQGLSSPVTKSFNRGEC |  |  |  |  |  |  |  |  |  |  |  |  | Kd [4]: 0.619 nM; koff [4]: 0.000478 s⁻¹; kon [4]: 772000 M⁻¹ s⁻¹; Kd [5]: < 0.001 nM; koff [5]: < 1e-07 s⁻¹; kon [5]: 85400 M⁻¹ s⁻¹; Kd [6]: 0.951 nM; koff [6]: 0.000342 s⁻¹; kon [6]: 360000 M⁻¹ s⁻¹
4 | bispecific fusion protein BI-9ND2-2GS4 (bispecific antibody, human IgG1, kappa) heavy: not shown light: ETVLTQSPATLSLSPGERATLSCRASSSVSYMYWFQQKPGQAPRLLIYSTSNLASGIPARFSGSGSGTDYTLTISSLEPEDFAVYYCQQRRNYPHTFGGGTKVEIKRTVAAPSVFIFPPSDEQLKSGTASVVCLLNNFYPREAKVQWKVDNALQSGNSQESVTEQDSKDSTYSLSSTLTLSKADYEKHKVYACEVTHQGLSSPVTKSFNRGEC | 0.275 nM | 0.339 nm | 0.000257 s⁻¹ | 937000 M⁻¹ s⁻¹ | < 0.001 nM | 0.492 nm | < 1e-07 s⁻¹ | 456000 M⁻¹ s⁻¹ | < 0.001 nM | 0.466 nm | < 1e-07 s⁻¹ | 115000 M⁻¹ s⁻¹ | 
5 | bispecific fusion protein BI-9ND2-4GS4 (bispecific antibody, human IgG1, kappa) heavy: not shown light: ETVLTQSPATLSLSPGERATLSCRASSSVSYMYWFQQKPGQAPRLLIYSTSNLASGIPARFSGSGSGTDYTLTISSLEPEDFAVYYCQQRRNYPHTFGGGTKVEIKRTVAAPSVFIFPPSDEQLKSGTASVVCLLNNFYPREAKVQWKVDNALQSGNSQESVTEQDSKDSTYSLSSTLTLSKADYEKHKVYACEVTHQGLSSPVTKSFNRGEC | 0.0667 nM | 0.298 nm | 7.79e-05 s⁻¹ | 1.17e+06 M⁻¹ s⁻¹ | < 0.001 nM | 0.468 nm | < 1e-07 s⁻¹ | 522000 M⁻¹ s⁻¹ | < 0.001 nM | 0.484 nm | < 1e-07 s⁻¹ | 125000 M⁻¹ s⁻¹ | 
6 | bispecific fusion protein BI-9D2-1GS4 (bispecific antibody, human IgG1, kappa) heavy: not shown light: ETVLTQSPATLSLSPGERATLSCRASSSVSYMYWFQQKPGQAPRLLIYSTSNLASGIPARFSGSGSGTDYTLTISSLEPEDFAVYYCQQRRNYPHTFGGGTKVEIKRTVAAPSVFIFPPSDEQLKSGTASVVCLLNNFYPREAKVQWKVDNALQSGNSQESVTEQDSKDSTYSLSSTLTLSKADYEKHKVYACEVTHQGLSSPVTKSFNRGEC | 0.724 nM | 0.261 nm | 0.000589 s⁻¹ | 813000 M⁻¹ s⁻¹ | < 0.001 nM | 0.299 nm | < 1e-07 s⁻¹ | 400000 M⁻¹ s⁻¹ | < 0.001 nM | 0.591 nm | < 1e-07 s⁻¹ | 149000 M⁻¹ s⁻¹ | 
7 | bispecific fusion protein BI-9D2-2GS4 (bispecific antibody, human IgG1, kappa) heavy: not shown light: ETVLTQSPATLSLSPGERATLSCRASSSVSYMYWFQQKPGQAPRLLIYSTSNLASGIPARFSGSGSGTDYTLTISSLEPEDFAVYYCQQRRNYPHTFGGGTKVEIKRTVAAPSVFIFPPSDEQLKSGTASVVCLLNNFYPREAKVQWKVDNALQSGNSQESVTEQDSKDSTYSLSSTLTLSKADYEKHKVYACEVTHQGLSSPVTKSFNRGEC | 0.391 nM | 0.242 nm | 0.000339 s⁻¹ | 866000 M⁻¹ s⁻¹ | < 0.001 nM | 0.302 nm | < 1e-07 s⁻¹ | 412000 M⁻¹ s⁻¹ | < 0.001 nM | 0.56 nm | < 1e-07 s⁻¹ | 151000 M⁻¹ s⁻¹ | 
8 | bispecific fusion protein BI-9D2-3G4S-4S (bispecific antibody, human IgG1, kappa) heavy: not shown light: ETVLTQSPATLSLSPGERATLSCRASSSVSYMYWFQQKPGQAPRLLIYSTSNLASGIPARFSGSGSGTDYTLTISSLEPEDFAVYYCQQRRNYPHTFGGGTKVEIKRTVAAPSVFIFPPSDEQLKSGTASVVCLLNNFYPREAKVQWKVDNALQSGNSQESVTEQDSKDSTYSLSSTLTLSKADYEKHKVYACEVTHQGLSSPVTKSFNRGEC | 0.528 nM | 0.285 nm | 0.000435 s⁻¹ | 824000 M⁻¹ s⁻¹ | < 0.001 nM | 0.358 nm | < 1e-07 s⁻¹ | 382000 M⁻¹ s⁻¹ | < 0.001 nM | 0.457 nm | < 1e-07 s⁻¹ | 155000 M⁻¹ s⁻¹ | 
9 | bispecific fusion protein BI-9D2-3G4S-8S (bispecific antibody, human IgG1, kappa) heavy: not shown light: ETVLTQSPATLSLSPGERATLSCRASSSVSYMYWFQQKPGQAPRLLIYSTSNLASGIPARFSGSGSGTDYTLTISSLEPEDFAVYYCQQRRNYPHTFGGGTKVEIKRTVAAPSVFIFPPSDEQLKSGTASVVCLLNNFYPREAKVQWKVDNALQSGNSQESVTEQDSKDSTYSLSSTLTLSKADYEKHKVYACEVTHQGLSSPVTKSFNRGEC | 0.166 nM | 0.29 nm | 0.000134 s⁻¹ | 808000 M⁻¹ s⁻¹ | < 0.001 nM | 0.394 nm | < 1e-07 s⁻¹ | 402000 M⁻¹ s⁻¹ | < 0.001 nM | 0.476 nm | < 1e-07 s⁻¹ | 154000 M⁻¹ s⁻¹ | 
10 | control antibody litifilimab analogue (antibody, human IgG1, kappa, V domains shown, Anti-BDCA2 control antibody expressed in ExpiCHO-S cells) VH: DVQLVESGGGLVKPGGSLRLSCAASGFTFSTYTMSWVRQAPGKGLEWVATISPGDSFGYYYPDSVQGRFTISRDNAKNSLYLQMNSLRAEDTAVYYCTRDIYYNYGAWFAYWGQGTLVTVSS VL: DIQLTQSPSSLSASVGDRVTITCKASQSVDYDGDSYMNWYQQKPGKAPKLLIYAASTLESGVPSRFSGSGSGTDFTLTISSLQPEDFATYYCQQANEDPRTFGQGTKVEIKR | 6.5 nM | 0.296 nm | 0.000643 s⁻¹ | 99000 M⁻¹ s⁻¹ | < 0.001 nM | 0.0284 nm | < 1e-07 s⁻¹ | 300000 M⁻¹ s⁻¹ | < 0.001 nM | 0.444 nm | < 1e-07 s⁻¹ | 172000 M⁻¹ s⁻¹ | 
11 | anti-BDCA2 humanized antibody Hu37F2C6-8 (antibody, human IgG1, kappa, V domains shown) VH: QVQLVQSGAEVKKPGASVKVSCKASGYTFTDFAVHWVRQAPGQRLEWMGLIGTSSGSTNYNQKFQGRVTMTVDKSANTAYMELSSLRSEDTAVYYCARNGYYVGYYALDYWGQGTTVTVSS VL: ETVLTQSPATLSLSPGERATLSCRASSSVSYMYWFQQKPGQAPRLLIYSTSNLASGIPARFSGSGSGTDYTLTISSLEPEDFAVYYCQQRRNYPHTFGGGTKVEIKR |  |  |  |  |  |  |  |  |  |  |  |  | Kd [7]: < 0.001 nM; koff [7]: < 1e-07 s⁻¹; kon [7]: 113000 M⁻¹ s⁻¹
12 | anti-BDCA2 humanized antibody Hu37F2C6-9 (antibody, human IgG1, kappa, V domains shown, also called humanized 37F2C6-9) VH: QVQLVQSGAEVKKPGASVKVSCKASGYTFTDFAVHWVRQAPGQRLEWMGLIGTSSGSTNYNQKFQGRATMTVDKSANTAYMELSSLRSEDTAVYYCARNGYYVGYYALDYWGQGTTVTVSS VL: ETVLTQSPATLSLSPGERATLSCRASSSVSYMYWFQQKPGQAPRLLIYSTSNLASGIPARFSGSGSGTDYTLTISSLEPEDFAVYYCQQRRNYPHTFGGGTKVEIKR |  |  |  |  |  |  |  |  |  |  |  |  | Kd [7]: < 0.001 nM; koff [7]: < 1e-07 s⁻¹; kon [7]: 121000 M⁻¹ s⁻¹
